Source: US11957748B2, “Vaccine to pathogenic immune activation cells during infections” (priority 2019, dated 2024)

Target: T1, HLA-E (HLA-E*01033-transfected K562) (Homo sapiens, UniProt P13747)
T1 construct: expressed in transfected cells; host or cells: K562 (K562/HLA-E, kept under G-418 selection)
Assay: Peptide-HLA molecule binding assay (HLA-E stabilization)
Conditions: HLA-E Transfected K562 pulsed overnight at 26° C.
Method: Peptide binding was assessed by HLA-E stabilization assays using HLA-E*01033-transfected derivative of K562 (K562/HLA-E) cell lines. Briefly, cells were re-suspended in serum-free medium at 1×10^6 cells/ml. Where appropriate, a peptide (see Table 1) was added. After overnight incubation at 26° C., cells were washed with PBS to remove free peptides. Next, HLA surface expression was monitored after staining with anti-HLA-E mAb. Analysis was done on a FACScalibur cytometer (BD Biosciences). Results are presented as the MFI of cells stained with anti-HLA-E mAb.

In order of rising “MFI (HLA-E surface expression, anti-HLA-E mAb)” value:
1. RIRTWKSLV (HIV-1 Pol derived peptide; MHCIb/E-binding antigen)  6580
2. PEIVIYDYM (HIV-1 Pol derived peptide; MHCIb/E-binding antigen)  7320
3. VMATRRNVL (MBt derived peptide) [reference compound]  7523
4. RMYSPVSIL (MHCIb/E-binding antigen)  8240
5. TALSEGATP (MHCIb/E-binding antigen)  8530
